Measurements: paper PMC10060375, “Self assembling nanoparticle enzyme clusters provide access to substrate channeling in multienzymatic cascades” (Nature Communications, 2023)

Legend:
purified protein = substrate: O=C[C@H](O)COP(=O)(O)O; assay: purified protein; conditions: free enzyme, 30 °C, cosubstrates saturating, varied substrate inferred from pathway
[1] = substrate: O=C(CO)COP(=O)(O)O; assay: initial rates, plate reader, Michaelis-Menten fit; assay type: biochemical, Escherichia coli; conditions: free enzyme, 30 °C, forward direction inferred (only PGI and PGK stated as reverse), substrate inferred from pathway
Excerpt: initial rates, plate reader, Michaelis-Menten fit on Triose phosphate isomerase (TPI)

[2] = substrate: O=C(O)[C@@H](CO)OP(=O)(O)O; assay: initial rates, plate reader, Michaelis-Menten fit; assay type: biochemical, Escherichia coli; conditions: free enzyme, 30 °C, substrate inferred from pathway
Excerpt: initial rates, plate reader, Michaelis-Menten fit on Enolase (Eno)

[3] = substrate: O=C(O)[C@H](O)COP(=O)(O)O; assay: initial rates, plate reader, Michaelis-Menten fit; assay type: biochemical, Escherichia coli; conditions: free enzyme, 30 °C, forward direction
Excerpt: initial rates, plate reader, Michaelis-Menten fit on Phosphoglycerate mutase (PGM)

[4] = substrate: CC(=O)C(=O)O; assay: initial rates, plate reader, Michaelis-Menten fit; assay type: biochemical, Escherichia coli; conditions: free enzyme, 30 °C, cosubstrate saturating, varied substrate inferred from pathway
Excerpt: initial rates, plate reader, Michaelis-Menten fit on Lactate dehydrogenase (LDH)

B1: Glyceraldehyde-3-phosphate dehydrogenase (GPD) (Escherichia coli K-12) (protein)
chain: TIKVGINGFGRIGRIVFRAAQKRSDIEIVAINDLLDADYMAYMLKYDSTHGRFDGTVEVKDGHLIVNGKKIRVTAERDPANLKWDEVGVDVVAEATGLFLTDETARKHITAGAKKVVMTGPSKDNTPMFVKGANFDKYAGQDIVSNASCTTNCLAPLAKVINDNFGIIEGLMTTVHATTATQKTVDGPSHKDWRGGRGASQNIIPSSTGAAKAVGKVLPELNGKLTGMAFRVPTPNVSVVDLTVRLEKAATYEQIKAAVKAAAEGEMKGVLGYTEDDVVSTDFNGEVCTSVFDAKAGIALNDNFVKLVSWYDNETGYSNKVLDLIAHISK
Km (purified protein): 3.494 ± 1.039 mM
Vmax (purified protein): 0.6 µM/min
kcat (purified protein): 3.2 s⁻¹
kcat/Km (purified protein): 920 M⁻¹ s⁻¹

B2: Triose phosphate isomerase (TPI) (Escherichia coli K-12) (protein)
chain: MRHPLVMGNWKLNGSRHMVHELVSNLRKELAGVAGCAVAIAPPEMYIDMAKREAEGSHIMLGAQNVDLNLSGAFTGETSAAMLKDIGAQYIIIGHSERRTYHKESDELIAKKFAVLKEQGLTPVLCIGETEAENEAGKTEEVCARQIDAVLKTQGAAAFEGAVIAYEPVWAIGTGKSATPAQAQAVHKFIRDHIAKVDANIAEQVIIQYGGSVNASNAAELFAQPDIDGALVGGASLKADAFAVIVKAAEAAKQA
notes: full length, terminal His6 kept; E. coli BL21(DE3)
Km [1]: 1.717 ± 0.236 mM
Vmax [1]: 34.9 µM/min
kcat [1]: 194 ± 12 s⁻¹
kcat/Km [1]: 113000 ± 17000 M⁻¹ s⁻¹

B3: Enolase (Eno) (Escherichia coli K-12) (protein)
chain: SKIVKIIGREIIDSRGNPTVEAEVHLEGGFVGMAAAPSGASTGSREALELRDGDKSRFLGKGVTKAVAAVNGPIAQALIGKDAKDQAGIDKIMIDLDGTENKSKFGANAILAVSLANAKAAAAAKGMPLYEHIAELNGTPGKYSMPVPMMNIINGGEHADNNVDIQEFMIQPVGAKTVKEAIRMGSEVFHHLAKVLKAKGMNTAVGDEGGYAPNLGSNAEALAVIAEAVKAAGYELGKDITLAMDCAASEFYKDGKYVLAGEGNKAFTSEEFTHFLEELTKQYPIVSIEDGLDESDWDGFAYQTKVLGDKIQLVGDDLFVTNTKILKEGIEKGIANSILIKFNQIGSLTETLAAIKMAKDAGYTAVISHRSGETEDATIADLAVGTAAGQIKTGSMSRSDRVAKYNQLIRIEEALGEKAPYNGRKEIKGQA
notes: as for B2
Km [2]: 2.04 ± 0.072 mM
Vmax [2]: 4.14 µM/min
kcat [2]: 22.9 ± 3 s⁻¹
kcat/Km [2]: 11200 ± 4300 M⁻¹ s⁻¹

B4: Phosphoglycerate mutase (PGM) (Escherichia coli K-12) (protein)
chain: MLVSKKPMVLVILDGYGYREEQQDNAIFSAKTPVMDALWANRPHTLIDASGLEVGLPDRQMGNSEVGHVNLGAGRIVYQDLTRLDVEIKDRAFFANPVLTGAVDKAKNAGKAVHIMGLLSAGGVHSHEDHIMAMVELAAERGAEKIYLHAFLDGRDTPPRSAESSLKKFEEKFAALGKGRVASIIGRYYAMDRDNRWDRVEKAYDLLTLAQGEFQADTAVAGLQAAYARDENDEFVKATVIRAEGQPDAAMEDGDALIFMNFRADRAREITRAFVNADFDGFARKKVVNVDFVMLTEYAADIKTAVAYPPASLVNTFGEWMAKNDKTQLRISETEKYAHVTFFFNGGVEESFKGEDRILINSPKVATYDLQPEMSSAELTEKLVAAIKSGKYDTIICNYPNGDMVGHTGVMEAAVKAVEALDHCVEEVAKAVESVGGQLLITADHGNAEQMRDPATGQAHTAHTNLPVPLIYVGDKNVKAVEGGKLSDIAPTMLSLMGMEIPQEMTGKPLFIVE
notes: as for B2
Km [3]: 3.584 ± 1.138 mM

B5: Lactate dehydrogenase (LDH) (Escherichia coli K-12) (protein)
chain: MKLAVYSTKQYDKKYLQQVNESFGFELEFFDFLLTEKTAKTANGCEAVCIFVNDDGSRPVLEELKKHGVKYIALRCAGFNNVDLDAAKELGLKVVRVPAYDPEAVAEHAIGMMMTLNRRIHRAYQRTRDANFSLEGLTGFTMYGKTAGVIGTGKIGVAMLRILKGFGMRLLAFDPYPSAAALELGVEYVDLPTLFSESDVISLHCPLTPENYHLLNEAAFEQMKNGVMIVNTSRGALIDSQAAIEALKNQKIGSLGMDVYENERDLFFEDKSNDVIQDDVFRRLSACHNVLFTGHQAFLTAEALTSISQTTLQNLSNLEKGETCPNELV
notes: full length, terminal His6 kept; E. coli BL21(DE3); EC 1.1.1.28
Km [4]: 31.47 ± 6.901 mM
Vmax [4]: 14.4 µM/min
kcat [4]: 95.5 ± 10.4 s⁻¹
kcat/Km [4]: 3040 ± 740 M⁻¹ s⁻¹
